Source: patent US20200087363A1 (IMMATICS BIOTECHNOLOGIES, published 2020)

B1: RENPGMFSW (peptide)
peptide: RENPGMFSW
B2: SEHSLEGQKF (peptide)
peptide: SEHSLEGQKF
B3: DENDAGNLITF (peptide)
peptide: DENDAGNLITF
B4: GETQQHIQL (peptide)
peptide: GETQQHIQL
B5: LEEPMPFFY (peptide)
peptide: LEEPMPFFY
B6: MEGAALLKIF (peptide)
peptide: MEGAALLKIF
B7: EEHIFSAF (peptide)
peptide: EEHIFSAF
B8: EEHSSKLQTSL (peptide)
peptide: EEHSSKLQTSL
B9: HEVAQDDHL (peptide)
peptide: HEVAQDDHL
B10: MEHSDENIQFW (peptide)
peptide: MEHSDENIQFW
B11: EELHAALSEW (peptide)
peptide: EELHAALSEW
B12: KEMQVTISQQL (peptide)
peptide: KEMQVTISQQL
B13: EEQLLQKVM (peptide)
peptide: EEQLLQKVM
B14: TEANVQALF (peptide)
peptide: TEANVQALF
B15: EEIFAHLGL (peptide)
peptide: EEIFAHLGL
B16: TEQALRLSV (peptide)
peptide: TEQALRLSV
B17: AEFVPKADLL (peptide)
peptide: AEFVPKADLL
B18: ALNGDIYVW (peptide)
peptide: ALNGDIYVW
B19: NEAGEVSKHF (peptide)
peptide: NEAGEVSKHF
B20: AEHDMKSVL (peptide)
peptide: AEHDMKSVL
B21: LEALLSDLF (peptide)
peptide: LEALLSDLF
B22: LEIMTNLVTL (peptide)
peptide: LEIMTNLVTL
B23: RELRPLFDRQW (peptide)
peptide: RELRPLFDRQW
B24: TEGDVLNYIF (peptide)
peptide: TEGDVLNYIF
B25: MEIKGTVTEF (peptide)
peptide: MEIKGTVTEF
B26: TELEVKIRDW (peptide)
peptide: TELEVKIRDW
B27: NEILTIHF (peptide)
peptide: NEILTIHF
B28: REEEANVVL (peptide)
peptide: REEEANVVL
B29: AELPENLKALF (peptide)
peptide: AELPENLKALF
B30: KELSVFKKF (peptide)
peptide: KELSVFKKF
B31: MEILWKTLT (peptide)
peptide: MEILWKTLT
B32: SEAKEIKSQL (peptide)
peptide: SEAKEIKSQL
B33: RELPLVLLA (peptide)
peptide: RELPLVLLA
B34: REILHAQTL (peptide)
peptide: REILHAQTL
B35: YERPTLVEL (peptide)
peptide: YERPTLVEL
B36: MEIEGAGNFL (peptide)
peptide: MEIEGAGNFL
B37: SEDPEKYYL (peptide)
peptide: SEDPEKYYL
B38: LEGGGRGGEF (peptide)
peptide: LEGGGRGGEF
B39: SEFLLRIF (peptide)
peptide: SEFLLRIF
B40: AEGEPPPAL (peptide)
peptide: AEGEPPPAL
B41: AEGEPPPALAW (peptide)
peptide: AEGEPPPALAW
B42: LEMLDAHRL (peptide)
peptide: LEMLDAHRL
B43: EEFLRPRSL (peptide)
peptide: EEFLRPRSL
B44: TEEITEGVW (peptide)
peptide: TEEITEGVW
B45: SEASVYLFRF (peptide)
peptide: SEASVYLFRF
B46: DEDLFHKL (peptide)
peptide: DEDLFHKL
B47: SVNPIIYGF (peptide)
peptide: SVNPIIYGF
B48: AGSPVMRKW (peptide)
peptide: AGSPVMRKW
B49: EVEVGDRTDW (peptide)
peptide: EVEVGDRTDW
B50: REAEEKEAQL (peptide)
peptide: REAEEKEAQL
B51: WEVEVGDRTDW (peptide)
peptide: WEVEVGDRTDW
B52: EEEVFSGMKL (peptide)
peptide: EEEVFSGMKL
B53: KEAFGPQAL (peptide)
peptide: KEAFGPQAL
B54: SEDTIHTHL (peptide)
peptide: SEDTIHTHL
B55: EELALRIGL (peptide)
peptide: EELALRIGL
B56: SEVEGLAFV (peptide)
peptide: SEVEGLAFV
B57: TETDIDREY (peptide)
peptide: TETDIDREY
B58: VEAATVSKW (peptide)
peptide: VEAATVSKW
B59: AEDNMVTSY (peptide)
peptide: AEDNMVTSY
B60: ALTEDSIDDTF (peptide)
peptide: ALTEDSIDDTF
B61: LEYEAPKLY (peptide)
peptide: LEYEAPKLY
B62: AEDLEKKYA (peptide)
peptide: AEDLEKKYA
B63: AEALVDGKW (peptide)
peptide: AEALVDGKW
B64: AEALVDGKWQEF (peptide)
peptide: AEALVDGKWQEF
B65: YEIRAEAL (peptide)
peptide: YEIRAEAL
B66: SEKEPGQQY (peptide)
peptide: SEKEPGQQY
B67: QEDKATQTL (peptide)
peptide: QEDKATQTL
B68: TEEPQRLFY (peptide)
peptide: TEEPQRLFY
B69: SESLPRAPL (peptide)
peptide: SESLPRAPL
B70: LEDQLKPMLEW (peptide)
peptide: LEDQLKPMLEW

Each binder was assayed against T1, HLA-B*44:05 (human) (assay: UV peptide exchange, anti-b2m ELISA).
T1 construct: also called peptide-receptive MHC class I molecule
Experimental: Only peptide candidates that can effectively bind and stabilize the peptide-receptive MHC molecules prevent dissociation of the MHC complexes. To determine the yield of the exchange reaction, an ELISA was performed based on the detection of the light chain (β2m) of stabilized MHC complexes. The assay was performed as generally described in Rodenko et al. (Rodenko et al., 2006)
96 well MAXISorp plates (NUNC) were coated over night with 2 ug/ml streptavidin in PBS at room temperature, washed 4× and blocked for 1 h at 37° C. in 2% BSA containing blocking buffer. […] Peptide-MHC monomers of the UV-exchange reaction were diluted 100-fold in blocking buffer. Samples were incubated for 1 h at 37° C., washed four times, incubated with 2 ug/ml HRP conjugated anti-β2m for 1 h at 37° C., washed again and detected with TMB solution that is stopped with […]. Absorption was measured at 450 nm.

Peptide exchange yield, > 75%:
B8
B11
B12
B13
B14
B16
B18
B22
B26
B31
B36
B44
B52
B53
B67

Peptide exchange yield, 20 to 50%:
B7
B9
B10
B27
B33
B38
B39
B43
B46
B47
B48
B49
B57
B61
B62
B65
B66

Peptide exchange yield, 10 to 20%:
B5
B60
B68

Peptide exchange yield, 50 to 75%:
B1
B2
B3
B4
B6
B15
B17
B19
B20
B21
B23
B24
B25
B28
B29
B30
B32
B34
B35
B37
B40
B41
B42
B45
B50
B51
B54
B55
B56
B58
B59
B63
B64
B69
B70
